The values below are quoted from earlier work in PMC10524267.

The data set deals with CX3CR1 (Homo sapiens) (UniProt P49238).
Chain of UniProt P49238 (P49238 whole entry): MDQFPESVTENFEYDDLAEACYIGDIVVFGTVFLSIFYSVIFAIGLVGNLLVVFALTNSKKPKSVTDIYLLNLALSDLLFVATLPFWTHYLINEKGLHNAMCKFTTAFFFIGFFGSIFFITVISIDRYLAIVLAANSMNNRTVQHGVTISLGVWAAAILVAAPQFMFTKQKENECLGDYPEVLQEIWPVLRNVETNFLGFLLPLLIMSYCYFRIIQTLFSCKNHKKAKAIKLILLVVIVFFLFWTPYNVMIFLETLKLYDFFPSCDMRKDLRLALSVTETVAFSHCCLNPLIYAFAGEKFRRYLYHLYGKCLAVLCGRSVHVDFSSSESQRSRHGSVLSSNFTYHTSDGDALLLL

With CX3CL1 (from UniProt P78423), the Kd is 0.91 nM.

The Kd is the constant that tells how readily two partners part at equilibrium.
